The record followed here is the nanobody polyreactivity screen of Harvey et al. (2022).

The series can be described thus: yeast display, Sf9 membrane polyspecificity reagent, FACS + sequencing; frameworks hold sequencing errors. In outline:
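A nanobody's polyreactivity label depends on the gate it was sorted from. Yeast display cells were stained with 10% biotinylated, detergent-solubilized Sf9 membrane reagent for 1 hour at 4 °C, enriched on streptavidin microbeads and sorted by FACS. The low and high (top ~1%) gates were set on anti-HA fluorescence for expression and streptavidin fluorescence for reagent binding.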
“QVQLVESGGGLVQAGGSLRLSCAASGSTFRQYAMGWYRQAPGKERELVAAINWSGSSTYYADSVKGRFTISRDNAKNTVYLQMNSLKPDDTAVYYCAAVVQYWWWKGRGYWGQGTQVTVSS”: the “polyreactivity (PSR sort gate)” value is recorded as “high polyreactivity”. Consider “QVQLVESGGGLVQAGGSLRLSCAASGSTFRRNAMGWYRKAPGKERELVAAISSTGGSTRYADSVKGRFTISRDNAKNTVYLQMNSLKPEDTAVYYCAARFSASGSFYYWGQGTQVTVSS”, for which the “polyreactivity (PSR sort gate)” value was “high polyreactivity”.

Turning to “QVQLVESGGGLVQAGGSLRLSCAASGSTFRRNAMGWYRQAPGKERELVAAISRGGNTKYADSVKGGFTISRDNAKNTVYLQKNSLKPEDTAVYYCATYYFSSSHLYGYWGQGTQVTVSS”, the “polyreactivity (PSR sort gate)” value is reported as “high polyreactivity”. “QVQLVESGGGLVQAGGSLRLSCAASGSTFRRNAMGWYRQAPGKERELVAAITRRGTSTYYADSVKGRFTISRDNAKNTVYLQMNSLKPEDTAVYYCNAPRPYQDGKFGYWGQGTQVTVSS”: the “polyreactivity (PSR sort gate)” value was “high polyreactivity”. Under “QVQLVESGGGLVQAGGSLRLSCAASGSTFRRYAMGWYRQAPGKERELVAAISSSGDSTYYADSVKGRFTISRDNAKNTVYLQMNSLKPEDTAVYYCATRLRQVYRSQSSGYDYWGQGTQVTVSS” stands “low polyreactivity”. In the case of “QVQLVESGGGLVQAGGSLRLSCAASGSTFRSYAMGWNRQAPGKERELVAAISGRGGNTYYADSVKGRFTISRDNAKNTVYLLMNSLKPEDTAVYYCARKTVYYGSDYWGQGTQVTVSS”, the “polyreactivity (PSR sort gate)” value is recorded as “high polyreactivity”.

As to “QVQLVESGGGLVQAGGSLRLSCAASGSTFRSYAMGWYIQAPGKERELVARISYRTGSTYYADSVKGRFTISRDNAKNTVYLQMNSLKPEDTAVYYCATRGSYVGGLYDYWGQGTQVTVSS”, the “polyreactivity (PSR sort gate)” value is given as “high polyreactivity”.

Take “QVQLVESGGGLVQAGGSLRLSCAASGSTFRSYAMGWYRQAPGKERELVARISYRTGSTYYADSVKGRFTISRDNAKNTVYLQMNSLKPEDTAVYYCATRGSYVGGLYDYWGQGTQVTVSS”: the “polyreactivity (PSR sort gate)” value is “high polyreactivity”. In the case of “QVQLVESGGGLVQAGGSLRLSCAASGSTFRTNAMGWYRQAPGKERELVADISKRGGNTYYADSVKGRFTISRDNAKNTVYLQMNCLKPEDTALYDCAAYRVYGYGGGYDYYYWVQGTQVTVSS”, the “polyreactivity (PSR sort gate)” value was “high polyreactivity”. As to “QVQLVESGGGLVQAGGSLRLSCAASGSTFRVYAMGWYRQATVKERELVAAISGSGGSTYYADSVKGRFTISRYNAKNSVYLQMNSLKPEDTAVYYCAARSWYTEYYWGQGTQVSVSS”, the “polyreactivity (PSR sort gate)” value is listed as “high polyreactivity”. As for “QVQLVESGGGLVQAGGSLRLSCAASGSTFRVYVMGWYRQAPGKERELVAAISQRGGSTYYADSVKGRFTISRDNAKNTVYLQMNSLKPEDTAVYYCAADQPGARTWSNRESDYWGQGTQVTVSS”, the “polyreactivity (PSR sort gate)” value was “high polyreactivity”. As for “QVQLVESGGGLVQAGGSLRLSCAASGSTFRWNAMGWYRQAPGKERELVAAISWSGGTTYYADSVKGRFTISRDNAKNTVYLQMNSLKPEDTAVYYCAARTLWQGYWGQGTQVTVSS”, the “polyreactivity (PSR sort gate)” value is listed as “high polyreactivity”. On to “QVQLVESGGGLVQAGGSLRLSCAASGSTFRWNAMGWYRQAPGKERELVAAITWSGGSTYYADSVKGRFTISRDNAKNTVYLQMNSLKPEDTAVYYCNAGGLFQYDSWGQGTQVTVSS”, for which the “polyreactivity (PSR sort gate)” value is on record as “low polyreactivity”.

With “QVQLVESGGGLVQAGGSLRLSCAASGSTFRWNAMGWYRQAPGKERELVATITWGGGSTYYADSVKGRFTISRDNAKNTVYLQMNSLKPEDTAVYYCARRKRARYSYYQYNYWGQGTQVTVSS”, the “polyreactivity (PSR sort gate)” value is recorded as “high polyreactivity”. Take “QVQLVESGGGLVQAGGSLRLSCAASGSTFRYNAMGWYIQAPGKERELVAAITSTGDSTYYADSVKGRFTISRDNAKNTVYLQMNSLKPEYTAVYYCAARSYASPGWRYEYWGQGTQVTVSS”: the “polyreactivity (PSR sort gate)” value was “low polyreactivity”.

For the sequence “QVQLVESGGGLVQAGGSLRLSCAASGSTFRYNAMGWYRQAPGKERELVAAITSTGDSTYYADSVKGRFTISRDNAKNTVYLQMNSLKPEVTAVYYCAARSYASPGWRYEFWGQGTQVTVSS”, the “polyreactivity (PSR sort gate)” value is “low polyreactivity”. For “QVQLVESGGGLVQAGGSLRLSCAASGSTFRYNAMGWYRQAPGKERELVASISGSGGGTYYADSVKGRFTISRDNAKNTVYLQMNSLKPEDTAVYYCAADAGAFYFGGDYWGQGTQVTVSS”, the “polyreactivity (PSR sort gate)” value is recorded as “low polyreactivity”. As to “QVQLVESGGGLVQAGGSLRLSCAASGSTFRYNTMGWYRQAPGKERELVAAISTSGGTTYYADSVKGRFTISRDNAKNTVYLQMNSLKPEDTAVYYCAARPFPRRWYGAEDYYWGQGTQVTVSS”, the “polyreactivity (PSR sort gate)” value is “high polyreactivity”. Consider “QVQLVESGGGLVQAGGSLRLSCAASGSTFRYYAMGRYRQAPGKERELVAVISTSGNTYYADSVKGRFTISRDNAKNTVYLQMNSLKPEDTAGYYCAAGGVGGQISQEYDYWGQGTQVTVSS”, for which the “polyreactivity (PSR sort gate)” value is on record as “low polyreactivity”. In the case of “QVQLVESGGGLVQAGGSLRLSCAASGSTFRYYAMGWYREAPGKEREFVAAISLRAGSTYYADSVKGRFTISRDNAKNTVYLQMNSLKPEDTAVYYCAARRASYGTRRYDYWGQGTQVTVSS”, the “polyreactivity (PSR sort gate)” value is listed as “high polyreactivity”.

With “QVQLVESGGGLVQAGGSLRLSCAASGSTFRYYAMGWYRQAPGKERELVAAINYGGGRTYYADSVKGRFTISRDNAKNTVYLQMNSLKPEDTAVYYCATGYYYYRFYTYGYWGQGTQVTVSS”, the “polyreactivity (PSR sort gate)” value is “high polyreactivity”. With “QVQLVESGGGLVQAGGSLRLSCAASGSTFRYYAMGWYRQAPGKERELVAAISTGGTTYYADSVKGRFTISRENAKNTVYLQMNSLKPEDTAVYYCNTVRLFDYGYWGQGTQVTVSS”, the “polyreactivity (PSR sort gate)” value was “low polyreactivity”. As for “QVQLVESGGGLVQAGGSLRLSCAASGSTFRYYAMGWYRQAPGKERELVAAITRSGGSTSYADSVKGRFTISRDNAKNTVYLQMNSLKPEDTAVYYCAARFYRPYYARQGYNYWGQGTQVTVSS”, the “polyreactivity (PSR sort gate)” value is “high polyreactivity”. On to “QVQLVESGGGLVQAGGSLRLSCAASGSTFRYYAMGWYRQAPGKERELVAGISSSGGSTYYADSVKGRFTISRDNAKNTVYLQMNSLNPEDTAVYYCIAARGTSRSWAVFADYDYWGQGTQVTVSS”, for which the “polyreactivity (PSR sort gate)” value is listed as “high polyreactivity”. Regarding “QVQLVESGGGLVQAGGSLRLSCAASGSTFRYYAMGWYRQAPGKERELVASISSGGSTNYADSVKGRFTISRDNAKNTVYLQMNSLKPGDTAVYYCNADSWTVNRRYYYYRYEYWGQGTQVTVSS”, the “polyreactivity (PSR sort gate)” value is “low polyreactivity”. For “QVQLVESGGGLVQAGGSLRLSCAASGSTFRYYAMGWYRQAPGKERELVATITGSGGSTYYADSVKGRFTISRDNAKNTVYLQMNSLKPEDTAVYYCAAYYSGGYDYWGQGTQVTVSS”, the “polyreactivity (PSR sort gate)” value is on record as “high polyreactivity”.

In the case of “QVQLVESGGGLVQAGGSLRLSCAASGSTFRYYGMGWYRQAPGKERELVAAITWSSGSTFYADSVKGRFTISRDNAKNTVYLQMNSLKPEDTAVYYCAKTWWTRLKTKSLHFGYWGQGTQVTVSS”, the “polyreactivity (PSR sort gate)” value is on record as “high polyreactivity”. Under “QVQLVESGGGLVQAGGSLRLSCAASGSTFRYYTMGWYRQAPGKERELVAAITRRSASTYYADSVKGRFTISRDNAKNTVYLQMNSLKPEDTAVYYCAVRTNGPFEYWGQGTQVTVSS” stands “high polyreactivity”; under “QVQLVESGGGLVQAGGSLRLSCAASGSTFRYYTMGWYRQAPGKERELVAAITWSGGSTYYADSVKGRFTISRDNAKNTVNLQMNSLKPEDTEVYYCNKEDVGSSESDYWGQGTQVTVSS”, “high polyreactivity”; under “QVQLVESGGGLVQAGGSLRLSCAASGSTFRYYTMGWYRQAPGKERELVAAITWSGGSTYYADSVKGRFTISRDNAKNTVYLQMNSLKPEDTAVYYCNARSLQWTPRAYYYWGQGTQVTVSS”, “high polyreactivity”. Take “QVQLVESGGGLVQAGGSLRLSCAASGSTFRYYTMGWYRQAPGKERELVARISWSGGSTYYADSVKGRFTISRDNAKNTVYLQMNSLKPEDTAVYYCNAVLFYFQTRDYWGQGTQVTVSS”: the “polyreactivity (PSR sort gate)” value is reported as “high polyreactivity”. In the case of “QVQLVESGGGLVQAGGSLRLSCAASGSTFSANAMGWYRQAPGKERELLAAISSGDITYYADSVKGRFTISRDNAKNTVYLQMNSLKPEDTAVYYCAKYTRPTGNVDDGFEYWGQGTQVTVSS”, the “polyreactivity (PSR sort gate)” value was “low polyreactivity”. On to “QVQLVESGGGLVQAGGSLRLSCAASGSTFSANAMGWYRQAPGKERELVAAISRRGGSTNYADSVKGRFTISRDNAKNTVYLQMNSLKPEDTAVYYCAALYVPRSPFSYDYWGQGTQVTVSS”, for which the “polyreactivity (PSR sort gate)” value is given as “high polyreactivity”.

Take “QVQLVESGGGLVQAGGSLRLSCAASGSTFSANAMGWYRQAPGKERELVAAITYRGGNTYYADSVKGRFTISRDNAKNTVYLQMNSLKPEDTAVYYCNRDLRVRYRRLKYGYWGQGTQVTVSS”: the “polyreactivity (PSR sort gate)” value is given as “low polyreactivity”. In the case of “QVQLVESGGGLVQAGGSLRLSCAASGSTFSANAMGWYRQAPGKERELVAGISRSGGRTYYADSVKGRFTISRDNEMNTVYLQMNSLKPEDTAVYYCNARRRGAGGYDYWGQGTQVTVSS”, the “polyreactivity (PSR sort gate)” value is listed as “high polyreactivity”. With “QVQLVESGGGLVQAGGSLRLSCAASGSTFSAYAMGWYRQAPGKERELVATITSDGSTNYADSVKGRFTISRDNAKNTVYLQMNSLKPEDTAVYYCAAKRQYKRSRMYYWGQGTQVTVSS” the entry was “high polyreactivity”; with “QVQLVESGGGLVQAGGSLRLSCAASGSTFSDNAMGWYRQAPGKERELVATINASGGSTYYADSVKGRFTITRDNAKNTVYLQMNSLKPEDTAVYYCAADVYTRFWRVYRFDYWGQGTQVTVSS”, “low polyreactivity”. In the case of “QVQLVESGGGLVQAGGSLRLSCAASGSTFSDNDMGWYRQAPGKERELVATIDDDGSTYYADSVKGRFTISRDNAKNTVYLQMNSLKPEDTAVYYCAAEWYGGYPFGYWGQGTQVTVSS”, the “polyreactivity (PSR sort gate)” value is reported as “low polyreactivity”.

For “QVQLVESGGGLVQAGGSLRLSCAASGSTFSDYVMGWYRQAPGKEREFVDAISWTGGITYYADSVKGRFTISRDNAKNTVYLQMNSLKPEDTAVYYSAAKRKYYGNGYWGQGTQVTVSS”, the “polyreactivity (PSR sort gate)” value is “high polyreactivity”. With “QVQLVESGGGLVQAGGSLRLSCAASGSTFSEKAMGWYRQAPGKERELVAAISRRGGSTYYADSVKGRFTISRDNAKNTVYYQMNSLKPEDTAVYYCNVVNSGSFDYDYWGQGTPVTVSS” the entry was “high polyreactivity”; with “QVQLVESGGGLVQAGGSLRLSCAASGSTFSEYVMGWYRQAPGKQRELVAAIRSNGGSTYYADSVKGRFTISRDNAKNTVYLQMNSLKPEDTAVYYCNRVYSRRTYNSPLYDYWGQGTQVTVSS”, “high polyreactivity”.
